In patent publication US20020187934A1 one finds concentration showing significant binding data, which are given here for one substance.

For the experiment, the target named is purified HLA-DR4Dw4 (human). The experiment can be described thus: Test A: competition with biotin-FHA307-320 for purified HLA-DR4Dw4, ELISA read-out.

Turning to “Phv-Arg-Ala-IIb-Thr-Ala-Ala-Ala-Papa-NH2 (SEQ ID NO:1) (peptide)”, the concentration showing significant binding is under 0.1 µM.
